Reference: patent US20220064286A1

B1: 7.4A3.C96S.Q1E (antibody, V domains shown)
VH: EVQLVQSGSDLKKPGASVRVSCKASGYTFTSYPMNWVRQAPGHGLEWMGWINTNTGNPTYVQGFTGRFVFSLDTSVNTAYLQISSLKAEDTAVYFCARTGGHTYDSYAFDVWGQGTMVTVSS
VL: DIQLTQSPTFLSASVGDRVTITCRASQVISSSLAWYQQNPGKAPKLLIYAASTLQSGVPSRFSGSGSGTEFTLTISSLQPEDFVTYYCQHLHGYPSNFGQGTKVEIK
B2: 4.1A4.C96S.Q1E (antibody, V domains shown)
VH: EVQLVQSGSELKKPGASVKVSCKASGYTLTNYPMNWVRQAPGRGLEWMGWINTNTGSPAYAQDFTERFVFSLDTSVTTAYLQISSLKAEDTAVYYCARTAITSVYHFDYWGQGTLVTVSS
VL: DIQLTQSPSFLSASVGDRVTITCRASQGISSYLAWYQQKPGKAPRVLIYGATTLQSGVPSRFSGSESGTEFTLTISSLQPEDLATYYCQKLNSHPSSFGQGTKVEIK
B3: h6B2.L2H5 (antibody, V domains shown)
VH: EVTLKESGPALVKPTQTLTLTCTFSGFSLSTYGMGVSWIRQPPGKALEWLASIWWNGNTYYNPSLKSRLTITKDTSKNQVVLTMTNMDPVDTATYYCAHTGGAVITWFAYWGQGTLVTVSS
VL: DIQMTQSPSSLSASVGDRVTITCKASQSVGKNIAWYQQKPGKAPKLLIYYASNRYTGVPSRFSGSGSGTDFTFTISSLQPEDIATYYCQHIYNSPYPFGQGTKVEIK

Tests used:
[1] = target: hTIGIT mutant Q53A (human) (UniProt Q495A1); assay: SPR (BIACORE), N=2
[2] = target: hTIGIT mutant Y113A (human) (UniProt Q495A1); assay: SPR (BIACORE), N=2
[3] = target: hTIGIT mutant Q53A (human) (UniProt Q495A1); assay: SPR (BIACORE) KD normalized to WT, N=2
[4] = target: hTIGIT mutant Y113A (human) (UniProt Q495A1); assay: SPR (BIACORE) KD normalized to WT, N=2
[5] = target: hTIGIT mutant N70A (human) (UniProt Q495A1); assay: SPR (BIACORE), N=2
[6] = target: hTIGIT mutant N70A (human) (UniProt Q495A1); assay: SPR (BIACORE) KD normalized to WT, N=2
[7] = target: hTIGIT mutant H76A (human) (UniProt Q495A1); assay: SPR (BIACORE), N=2
[8] = target: hTIGIT mutant L73A (human) (UniProt Q495A1); assay: SPR (BIACORE), N=2
[9] = target: hTIGIT mutant H76A (human) (UniProt Q495A1); assay: SPR (BIACORE) KD normalized to WT, N=2
[10] = target: hTIGIT mutant L73A (human) (UniProt Q495A1); assay: SPR (BIACORE) KD normalized to WT, N=2

Chain of hTIGIT mutant Q53A (human) (Q495A1 22-141 Q53A limits assumed): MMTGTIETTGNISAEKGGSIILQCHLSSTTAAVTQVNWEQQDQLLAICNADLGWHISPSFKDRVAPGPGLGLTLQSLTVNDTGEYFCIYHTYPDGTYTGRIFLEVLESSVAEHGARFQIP
Chain of hTIGIT mutant Y113A (human) (Q495A1 22-141 Y113A limits assumed): as the sequence (Q495A1 22-141 Q53A limits assumed) above, with A32Q, Y92A counted along it
Chain of hTIGIT mutant N70A (human) (Q495A1 22-141 N70A limits assumed): as the sequence (Q495A1 22-141 Q53A limits assumed) above, with A32Q, N49A counted along it
Chain of hTIGIT mutant H76A (human) (Q495A1 22-141 H76A limits assumed): as the sequence (Q495A1 22-141 Q53A limits assumed) above, with A32Q, H55A counted along it
Chain of hTIGIT mutant L73A (human) (Q495A1 22-141 L73A limits assumed): as the sequence (Q495A1 22-141 Q53A limits assumed) above, with A32Q, L52A counted along it

Binder | Kd [1] | Kd [2] | Binding affinity drop vs. WT [3] | Binding affinity drop vs. WT [4] | Kd [5] | Binding affinity drop vs. WT [6] | Kd [7] | Kd [8] | Binding affinity drop vs. WT [9] | Binding affinity drop vs. WT [10]
B1 | > 0.1 µM | > 0.1 µM | > 56 fold | > 56 fold |  |  |  |  |  | 
B2 | > 0.5 µM | > 0.5 µM | > 16.2 fold | > 16.2 fold | > 0.5 µM | > 16.2 fold |  |  |  | 
B3 |  |  |  |  |  |  | > 0.1 µM | > 0.1 µM | > 143 fold | > 143 fold
